Assay results from PMC4695161, “Multifaceted interactions and regulation between antizyme and its interacting proteins cyclin D1, ornithine decarboxylase and antizyme inhibitor” (Oncotarget, 2015).

B1: N-terminal CCND1 peptide CCND1(21-154) (domain or fragment, human, UniProt P24385 21-154, looked up)
chain: NLLNDRVLRAMLKAEETCAPSVSYFKCVQKEVLPSMRKIVATWMLEVCEEQKCEEEVFPLAMNYLDRFLSLEPVKKSRLQLLGATCMFVASKMKETIPLTAEKLCIYTDNSIRPEELLQMELLLVNKLKWNLAA
notes: source: truncated by deletion mutagenesis of the human CCND1 plasmid
B2: human antizyme (AZ), wild type (natural protein)
chain: not shown
notes: antizyme (AZ), human; Natural AZ needs a +1 frameshift for translation; also called AZWT; full-length AZ; source: E. coli JM109 (pQE30), purified (Ni-NTA)
B3: N-terminal AZ peptide AZ(34-124) (domain or fragment)
chain: not shown
notes: also called AZ N-terminal peptide; source: truncated by deletion mutagenesis of the human AZ plasmid
B4: human ornithine decarboxylase (ODC) (enzyme, UniProt P11926 1-461, looked up)
chain: MNNFGNEEFDCHFLDEGFTAKDILDQKINEVSSSDDKDAFYVADLGDILKKHLRWLKALPRVTPFYAVKCNDSKAIVKTLAATGTGFDCASKTEIQLVQSLGVPPERIIYANPCKQVSQIKYAANNGVQMMTFDSEVELMKVARAHPKAKLVLRIATDDSKAVCRLSVKFGATLRTSRLLLERAKELNIDVVGVSFHVGSGCTDPETFVQAISDARCVFDMGAEVGFSMYLLDIGGGFPGSEDVKLKFEEITGVINPALDKYFPSDSGVRIIAEPGRYYVASAFTLAVNIIAKKIVLKEQTGSDDEDESSEQTFMYYVNDGVYGSFNCILYDHAHVKPLLQKRPKPDEKYYSSSIWGPTCDGLDRIVERCDLPEMHVGDWMLFENMGAYTVAAASTFNGFQRPTIYYVMSGPAWQLMQQFQNPDFPPEVEEQDASTLPVSCAWESGMKRHRAACASASINV
notes: ornithine decarboxylase (ODC), human; source: purified recombinant; expression not described

What was measured:
Settings in all cases: both partners purified
[1] = molecular target: B2; assay: AUC; sedimentation velocity, size distribution of mixtures at molar ratio AZ/CCND1 of 1; 30 mM Tris-HCl pH 7.4, 50 mM NaCl, 20°C; no constant fitted
human cyclin D1 (CCND1) = molecular target: T1, human cyclin D1 (CCND1) (human, UniProt P24385 1-295); assay: AUC; sedimentation velocity; AZ or AZ peptide at a fixed concentration, three concentrations of CCND1; 30 mM Tris-HCl pH 7.4, 50 mM NaCl; global fit (SEDPHAT) to A+B↔AB hetero-association
T1 construct: cyclin D1 (CCND1), human; source: E. coli JM109 (pQE30), purified (Ni-NTA)
T1 sequence (P24385 whole entry): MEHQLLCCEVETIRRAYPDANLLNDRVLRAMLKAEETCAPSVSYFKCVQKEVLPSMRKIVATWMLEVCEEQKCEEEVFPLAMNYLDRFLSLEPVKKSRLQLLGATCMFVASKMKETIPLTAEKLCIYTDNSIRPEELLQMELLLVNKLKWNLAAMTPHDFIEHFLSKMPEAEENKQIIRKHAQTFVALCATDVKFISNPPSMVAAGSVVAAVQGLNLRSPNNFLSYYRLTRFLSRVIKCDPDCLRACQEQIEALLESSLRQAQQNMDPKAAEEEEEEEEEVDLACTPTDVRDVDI

[2] = molecular target: T2, pre-formed AZ-CCND1 complex (human, UniProt P54368 1-228; P24385 1-295); assay: AUC; sedimentation velocity; AZ pre-incubated 1 hour with ODC (or CCND1) at molar ratio 1, then the third protein (CCND1 or ODC) at varied concentration; 30 mM Tris-HCl pH 7.4, 50 mM NaCl, 20°C
T2 construct: antizyme (AZ), human, as m1; cyclin D1 (CCND1), human, as m2; Molar ratio AZ/CCND1 fixed at 1; also called CCND1-AZ complex; source: AZ pre-incubated with CCND1 for 1 hour (purified recombinant proteins)
T2 sequence (P54368 whole entry, chain 1 of 2): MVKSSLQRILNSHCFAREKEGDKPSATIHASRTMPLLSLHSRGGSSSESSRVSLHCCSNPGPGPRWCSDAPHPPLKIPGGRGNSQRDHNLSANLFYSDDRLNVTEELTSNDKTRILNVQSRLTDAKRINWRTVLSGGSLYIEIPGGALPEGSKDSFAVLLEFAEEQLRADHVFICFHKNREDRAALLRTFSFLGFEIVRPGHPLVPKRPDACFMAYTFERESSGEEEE
T2 sequence (P24385 whole entry, chain 2 of 2): as the sequence (P24385 whole entry) above

Binder | Kd (human cyclin D1 (CCND1)) [nM] | further results
B1 |  | binding result [1]: binds
B2 | 810 ± 20 | 
B3 | 870 ± 10 | 
B4 |  | Kd [2]: 1260 ± 20 nM
